Assay results reported in paper PMC4556617, “Experimental Evidence for a Revision in the Annotation of Putative Pyridoxamine 5'-Phosphate Oxidases P(N/M)P from Fungi” (PLoS ONE, 2015).

Columns and labels:
Pdx3 = molecular target: T1, Pdx3 (Saccharomyces cerevisiae, UniProt P38075); assay: FMN fluorescence quenching titration (Ex […] nm, Em […] nm); size-exclusion chromatography co-elution; type: binding; settings: 1 uM FMN titrated with protein, 25 C, pH 7.4; protein as purified already carries FMN
T1 construct: full-length, synthetic gene in pET28a (NdeI/BamHI), N-terminal His-tag cut by thrombin; E. coli BL21 DE3 Rosetta; 27189 Da; homodimer
T1 sequence (P38075 1-228): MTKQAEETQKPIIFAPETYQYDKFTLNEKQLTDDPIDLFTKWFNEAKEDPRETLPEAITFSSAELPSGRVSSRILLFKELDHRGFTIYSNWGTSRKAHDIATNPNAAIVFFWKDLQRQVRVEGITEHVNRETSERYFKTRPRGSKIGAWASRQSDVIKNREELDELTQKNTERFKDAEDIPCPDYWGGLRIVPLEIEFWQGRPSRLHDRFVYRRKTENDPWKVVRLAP

[1] = molecular target: the molecule itself; assay: SEC; analytical size-exclusion chromatography, Superdex 75 3.3/300, 10 uM protein, 10 uL injected, buffer A (20 mM Tris, 150 mM NaCl, 1 mM DTT pH 7.4), tryptophan fluorescence; calibrated with transthyretin tetramers (54 kDa) and chymotrypsin monomers (25 kDa)

Cc1cc2nc3c(=O)[nH]c(=O)nc-3n(C[C@H](O)[C@H](O)[C@H](O)COP(=O)(O)O)c2cc1C [FMN]
FMN fluorescence quenching titration (Ex 450 nm, Em 520 nm); size-exclusion chro (Pdx3): Pdx3 produced a clear quenching effect due to FMN binding

B1: Pdx3 (enzyme, S. cerevisiae, UniProt P38075 1-228, looked up)
chain: MTKQAEETQKPIIFAPETYQYDKFTLNEKQLTDDPIDLFTKWFNEAKEDPRETLPEAITFSSAELPSGRVSSRILLFKELDHRGFTIYSNWGTSRKAHDIATNPNAAIVFFWKDLQRQVRVEGITEHVNRETSERYFKTRPRGSKIGAWASRQSDVIKNREELDELTQKNTERFKDAEDIPCPDYWGGLRIVPLEIEFWQGRPSRLHDRFVYRRKTENDPWKVVRLAP
notes: expected mass after thrombin digestion 27189 Da; A few residues of the vector probably remain after thrombin cleavage (surmised); also called P(N/M)P oxidase; pyridoxamine 5'-phosphate oxidase; source: E. coli BL21 DE3 Rosetta, purified (His Trap HP, thrombin digestion, Superdex 200 gel filtration); not shown: His-tag, N-terminal, cleaved
stoichiometry N [1]: 2

B2: Ypr172w (natural protein, S. cerevisiae, UniProt Q06608 1-200, looked up)
chain: MAWTSTLPAHLLNLIKNSKYVHVATCSKDCIPSVALMNYIYVPGEKLFGQTDNKNDYIIFVSPQDTQKFYNIKENPKVALLFHDWIIANNLSVGKESISGTPTPTSIPHEEQRQSELLNLLQELNQAELNQMSASIGGETEIVNPESEESKYYKDLILKANPDAKAFIFEKNTAVVKVRIDNARVSNNENRTMFLSKGKS
notes: expected mass after thrombin digestion 22788 Da; A few residues of the vector probably remain after thrombin cleavage (surmised); also called putative P(N/M)P oxidase; source: E. coli BL21 DE3 Rosetta, purified (His Trap HP, thrombin digestion, Superdex 200 gel filtration); not shown: His-tag, N-terminal, cleaved
stoichiometry N [1]: 2

B3: Ylr456w (natural protein, S. cerevisiae, UniProt Q06199 1-204, looked up)
chain: MKLNEQIPKDLLRLIKSSKYVHVATCSSNCIPSVSLMHYIFVSSAETFHKHEYSIEIDCNDYIIFTVFEKSVTFRNVMSNPNVALLFHDWITAKNLTLRKKSVHSKDDFSFVESESTKFNNFLRDLNQSELNQVSATINGIADIVNPNSEESTYYRRLLLTVNPDADIFILGEDTAIIKVNIQKIKVSDMENNTSTYGQTVQPV
notes: Ylr456w, product of the ORF YLR456W of S. cerevisiae (strain BY4741 cDNA), amplified with primers from the ATG to the stop codon, cloned NdeI/BamHI into pET28a; expected mass after thrombin digestion 23574 Da; A few residues of the vector probably remain at the N-terminus after thrombin cleavage (surmised); also called putative P(N/M)P oxidase; source: E. coli BL21 DE3 Rosetta, purified (His Trap …)
stoichiometry N [1]: 2
